Columns and labels:
[1] = molecular target: Coprobacillus sp. D7 FaRel2 toxin, catalytically impaired Y128F variant (Coprobacillus sp. D7)
[2] = molecular target: FaRel2-Δ166–206 (Coprobacillus sp. D7); assay: ITC; ATfaRel2 or variant in the syringe at 200-150 uM, FaRel2 in the cell at 15-20 uM; 25 °C; 25 mM HEPES pH 7.6, 300 mM NaCl, 2 mM MgCl2, 1 mM TCEP

Substance | stoichiometry N [1] | Kd [1] [µM] | Kd [2] [µM]
ATfaRel2 A50M (natural protein) | 1.1 | – | –
ATfaRel2 F59A (natural protein) | 0.99 | 2.15 | –
ATfaRel2 I45A (natural protein) | 0.91 | 0.868 | –
ATfaRel2 V43A (natural protein) | 0.97 | – | –
ATfaRel2 Y51A (natural protein) | 0.9 | 1.52 | –
ATfaRel2 Y54A (natural protein) | 0.92 | 8.75 | –
ATfaRel2 antitoxin (wild type) (natural protein) | – | – | 3.3
Coprobacillus sp. D7 ATfaRel2 antitoxin (natural protein) | 1.1 | – | –
